Experimental data reported in patent US20260218204, “APTAMERS SPECIFIC FOR TLR-4 AND USES THEREOF” (Merck Patent GmbH, published 2026).

Target: TLR-4 extracellular domain (Homo sapiens, UniProt O00206 O00206:24-631)
Experiment: ELONA; 200 nM aptamer, 20 mM Tris pH 7.4, 1 mM MgCl2, 150 mM NaCl, 5 mM KCl, 37 C; among the most efficient binders
Settings: tags: C-terminal 6xHis, expressed in baculovirus; label: 5' digoxigenin (ELONA); predicted G4
Procedure: It was determined if the selected aptamers recognized the TLR-4 protein. To that end, 100 ng/well of 6×HIS-recombinant TLR-4 were added to a 96-well microtiter plate and were incubated at 4° C. for 16 h. Subsequently, individual aptamers labeled with digoxigenin in the 5′ end were diluted at a concentration of 5 μg/mL and then denatured for 10 min at 95° C. and cooled for 10 min on ice. Then, 20 pmol of each of the aptamers in 100 μl (200 nM) of aptamer buffer were added to each well and the plate was incubated for 1 h at 37° C. Finally, the plate was incubated with peroxidase-conjugated anti-digoxigenin antibodies and developed using ABTS. An anti-Li H2A DNA aptamer was used as a positive control (Martin et al., 2013, PLoS ONE 8: e78886).
By means of the same type of assay, aptamers TLRApt#2F and TLRApt#3R were identified.

TLR-4 extracellular domain, sequence (O00206 24-631, one chain of several): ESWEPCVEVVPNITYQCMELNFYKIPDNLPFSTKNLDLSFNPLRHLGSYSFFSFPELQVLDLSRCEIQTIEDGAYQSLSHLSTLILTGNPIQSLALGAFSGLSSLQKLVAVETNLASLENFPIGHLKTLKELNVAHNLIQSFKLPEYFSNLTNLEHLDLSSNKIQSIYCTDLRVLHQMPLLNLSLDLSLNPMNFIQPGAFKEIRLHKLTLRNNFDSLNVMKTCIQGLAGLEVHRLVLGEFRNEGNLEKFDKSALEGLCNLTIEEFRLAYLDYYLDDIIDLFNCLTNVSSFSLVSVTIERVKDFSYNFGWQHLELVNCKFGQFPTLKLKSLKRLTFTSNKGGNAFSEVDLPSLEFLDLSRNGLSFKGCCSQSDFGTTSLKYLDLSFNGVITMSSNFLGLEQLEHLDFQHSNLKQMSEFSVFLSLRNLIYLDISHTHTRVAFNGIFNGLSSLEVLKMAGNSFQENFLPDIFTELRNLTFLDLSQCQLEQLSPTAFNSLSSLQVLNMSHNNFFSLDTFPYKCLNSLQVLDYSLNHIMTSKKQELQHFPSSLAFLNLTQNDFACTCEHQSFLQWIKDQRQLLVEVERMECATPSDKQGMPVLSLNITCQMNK

Row | Binder | binding result
1 | TLRApt#4F (ssDNA) DNA: GCGGATGAAGACTGGTGTGCCAATAAACCATATCGCCGCGTTAGCATGTACTCGGTTGGCCCTAAATACGAGCAAC | binds
2 | TLRApt#1R (ssDNA) DNA: GTTGCTCGTATTTAGGGCCACCGGCACGGGACAAGGCGCGGGACGGCGTAGATCAGGTCGACACCAGTCTTCATCCGC | binds
